Like-named read-outs stand apart in the source and are kept apart here.
B1: PMP10A6 (VHH)
VHH: QVQLVESGGGLVQAGGSLRLSCASSGRTFSSYVMGWFRQTPGKEREFVSTINWSGSNGYYADSVKGRFTISRDNAKNTVYLQMNNLKPEDTAVYYCAASAGGFLVPRVGQGYDYWGQGTQVTVSS
notes: Monovalent Nanobody
B2: PMP6B12 (VHH)
VHH: AVQLVESGGGLVQPGGSLRLSCAASGFTLAYYAIGWFRQAPGKEREGVSCISSSVGTTYYSDSVKGRFTISRDNAKNTVYLQMNSLKPEDTAVYYCVRSSWFDCGVQGRDLGNEYDYRGQGTQVTVSS
notes: Monovalent Nanobody
B3: PMP6E10 (VHH)
VHH: QVKLEESGGGLVQAGGSLRLSCVVSGRTFSPYTIAWFRQAPGKEREFVTTIIGSDRSTDLDGDTYYADSVRGRFTISRNDAKNTVFLQMSSLKPEDTAVYYCALTGKGYVFTPNEYDYWGQGTQVTVSS
notes: Monovalent Nanobody
B4: PMP7G4 (VHH)
VHH: AVQLVESGGGLVQPGGSLRLSCAASGSIFSRLAMDWYRQAPGKQRELVASISRSGTTMAADSVKGRFTISRDNAENMVYLQMNSLKPEDTAVYVCMAFDGYSGSDYWGRGTQVTVSS
notes: Monovalent Nanobody
B5: PMP7G5 (VHH)
VHH: QVKLEESGGGLVQPGGSLRLSCAASGSISRFNIMGWYRQAPGKQRELVADITNGGTTMYADSVKGRFTISRDNTKNTVYLQMNSLKPEDTAVYYCHTYYPTTGFDDWGQGAQVTVSS
notes: Monovalent Nanobody
B6: PMP7G9 (VHH)
VHH: QVQLVESGGGLVQPGGSLRLSCAASGFSLDYYGVGWFRQAPGKEREGVSCISSSDGDTYYADSVKGRFTISRDNAKNTVYLQMNSLKPEDTAVYYCATDLSDYGVCSRWPSPYDYWGQGTQVTVSS
notes: Monovalent Nanobody
B7: PMP21B4 (VHH)
VHH: QVQLVESGGGLVQAGDSLRVACAASGRTFSIDAMAWFRQAPGKEREFVSTMNWSTGATYYADSVKGRFTSSRDNAKSTSYLQMNSLKPEDTAVYYCAAARGLLIATDARGYDYWGQGTQVTVSS
notes: Monovalent Nanobody
B8: PMP17B11 (VHH)
VHH: QVQLVESGGGLVQAGGSLRLSCAASGPTFSTYAMGWFRQAPGKEREFVAAISWSGANTYYADSVKGRFTISRDNAKNTVYLRMNSLKPEDTAAYYCAASAIIEGFQDSIVIFSEAGYDYWGQGTQVTVSS
B9: PMP10C4 (VHH)
VHH: AVQLVDSGGGLVQAGGSLRLSCAASGRSFSNYHMVWFRQAPGKEREFVAAASGSTSSTYYADSVKGRFTISRDNAKNTVYLQMNSLKPEDTAVYYCAAVAGLLLPRVAEGMDYWGKGTLVTVSS
notes: Monovalent Nanobody
B10: PMP17C4 (VHH)
VHH: AVQLVDSGGGLVQAGDSLRLSCAASGRTFSNYAMAWFRQAPGKEREFVAVISYAGGRTYYADSVKGRFTISRDNAKNTVYLQMNSLKPEDTAVYYCAAVDSPLIATHPRGYDYWGQGTQVTVSS
notes: Monovalent Nanobody
B11: PMP21E7 (VHH)
VHH: AVQLVESGGGLVQAGGSLRLSSVVSGGTFSSYPIAWFRQPPGKEREFVAAISWRGGNTYYADSVKGRFTISRDNAKNTVYLQMNSLKPEDTAVYYSAAERAGVLLTKVPEGYDYWGQGTQVTVSS
notes: Monovalent Nanobody
B12: PMP13F12 (VHH)
VHH: AVQLVDSGGGLVQAGGSLRLSCAASGRTFSSSPMGWFRQAPGKEREFVAAISGRSGNTYYADSVKGRFTISRDNAKNTVYLQMNSLKPEDTAVYYCAAERVGLLLTVVAEGYDYWGQGTQVTVSS
notes: Monovalent Nanobody
B13: PMP21H1 (VHH)
VHH: QVQLVESGGGLVQTGGSLRLSCAASGSTFSKHHATGWFRQAPGKEREFVAALNWSGGNTYYTDSVKGRFTISRDNAQNTVYLQMNSLKPEDTAVYYCAAGSYVFYFTVRDQYDYWGQGTQVTVSS
notes: Monovalent Nanobody
B14: PMP6B6 (VHH)
VHH: QVQLVESAGGLVQPGGSLRLSCAASGIIFSINAMGWYRQAPGKRRELVADIMPYGSTEYADSVKGRFTISRDNAKNTVYLQMNSLKPEDTAVYYCHSYDPRGDDYWGQGTQVTVSS
notes: Monovalent Nanobody
B15: PMP14A8 (VHH)
VHH: EVQLVESGGGLVQAGGSLRLSCAASGGTFSSFPMGWFRQAPGKERKFVAGISQSGGSTHYSDSVKGRFTISRENAKNTVYLQMNNLKPEDTAVYYCAARGRTLALRNYAYTTEVGYDDWGQGTQVTVSS
notes: Monovalent Nanobody
B16: PMP14E1 (VHH)
VHH: QVQLVESGGGLVQAGGSLRLSCAASGRTFSSYPMGWFRQAPGKERKFVAGISQSGGSTAYSDSVKGRFTISRENAKSTVYLQMNSLKPEDTAVYYCAARDKTLALRDYAYTTDVGYDDWGQGTQVTVSS
notes: Monovalent Nanobody
B17: PMP14E9 (VHH)
VHH: AVQLVESGGGLVQAGGSLRLSCAASGGTFSAFPMGWFRQAPGKEREFVAGISQSGGSTHYSDSVKGRFTISKENAKSTVYLQMNSLKPEDTAVYYCAARGRTLALRNYAYTTEVGYDDWGQGTQVTVSS
notes: Monovalent Nanobody
B18: PMP14G1 (VHH)
VHH: QVKLEESGGGLVQAGGSLRLSCAASGGTFSAFPMGWFRQAPGKEREFVAGISQSGGSTHYSDSVKGRFTISKENAKNTVYLQMNSLKPEDTAVYYCAARGGTLALRNYAYTTEVGYDDWGQGTQVTVSS
notes: Monovalent Nanobody
B19: PMP14G11 (VHH)
VHH: QVQLVESGGGLVQAGGSLRLSCAASGGTFSSFPMGWFRQAPGKGREFVAGISQSGGSTHYSDSVKGRFTISRENAKNTVYLQMNSLKPEDTAVYYCAARGRTLALRNYAYTTEVGYDDWGQGTQVTVSS
notes: Monovalent Nanobody
B20: PMP17B5 (VHH)
VHH: QVQLVESGGGLVQAGGSLRLSCAASGGTFSAFPMGWFRQAPGKERKFVAGISQSGGSTHYSDSVKGRFTISRENAKNTIYLQMNSLKPEDTAVYYCAARGRTLALRNYAYTTEVGYDDWGQGTQVTVSS
notes: Monovalent Nanobody
B21: PMP17D7 (VHH)
VHH: AVQLVDSGGGLVQAGGSLRLSCAASGGTFSAFPMGWFRQAPGKEREFVAGISQSGGSTHYSDSVKGRFTISKENAKNTVYLQMNSLKPEDTAVYYCAARGRTLALRNYAYTTEVGYDDWGQGTQVTVSS
notes: Monovalent Nanobody
B22: PMP17G7 (VHH)
VHH: QVKLEESGGGLVQAGGSLRLSCAASGGTFSSYPMGWFRQAPGKEREFVTGISQSGGSTAYSDSVKGRFTISRENAKNTVYLQMNSLKPEDTAVYYCAARGRTIALRNYAYTTEVGYDDWGQGTQVTVSS
notes: Monovalent Nanobody

Legend:
[1] = target: T1, recombinant human IL6 (human, UniProt P05231 30-212); assay: cell-based or functional assay
[2] = target: T1, recombinant human IL6; assay: SPR, Biacore 3000; IL6 amine-coupled on CM5 chip, periplasmic extract injected
Method: Off-rate analysis of Nanobodies binding to IL6 was done by surface plasmon resonance on a Biacore 3000 instrument. Recombinant human IL6 was covalently bound to a CM5 sensor chip via amine coupling at a density of ˜500 RU. Remaining reactive groups were inactivated. Periplasmic extracts prepared from E. coli cells expressing anti-IL6 Nanobodies were diluted 10 or 15-fold and injected for 4 min to allow for binding to IL6 immobilized on the chip. Buffer without Nanobody was sent over the chip for 30 min to allow for spontaneous dissociation of bound Nanobody. The dissociation phase was used to calculate the koff values for each individual Nanobody (table B-1).

[3] = target: T1, recombinant human IL6; assay: cell-based or functional assay; remark: listed apart in the source
[4] = target: T1, recombinant human IL6; assay: Alphascreen competition: Nanobody titrated against 3 nM biotinylated human IL6; blocked partner IL6R (1 nM) captured on acceptor beads coated with anti-IL6R MAb BN-12; streptavidin donor beads; readout cps
Method: Purified samples of Nanobodies PMP6B6, PMP7G5, PMP7G9 and PMP7G4 were analyzed in Alphascreen for their ability to inhibit the interaction between IL6 and IL6R. In this assay, various concentrations of anti-IL6 Nanobodies ranging from 1 uM to 10 pM were incubated with 3 nM biotinylated human IL6 for 15 min in a 384-wells plate. Subsequently a mixture of IL6R (1 nM) and acceptor beads (20 ug/ml) coated with anti-IL6R MAb BN-12 (Diaclone) were added and incubated for 30 min. Finally, streptavidin coated donor beads (20 ug/ml) were added. After 1 hour of incubation plates were read on the Envison Alphascreen reader (PerkinElmer). All experiments were performed in duplicate.

Binder	IC50, inhibition of proliferation of the murine hybridoma cell line B9 (B9 assay, cell proliferation normalized) [1]	koff [2]	IC50, inhibition of proliferation of the murine hybridoma cell line B9 (B9 assay, cell proliferation normalized) [3]	IC50 [4]
B1	332 pM	0.00104 s⁻¹	–	–
B2	–	0.00027 s⁻¹	28 pM	–
B3	–	0.000545 s⁻¹	1070 pM	–
B4	–	0.00208 s⁻¹	421 pM	2.5 nM
B5	–	0.000412 s⁻¹	17 pM	6.1 nM
B6	–	0.00287 s⁻¹	385 pM	3.4 nM
B7	1860 pM	0.000658 s⁻¹	–	–
B8	702 pM	0.00133 s⁻¹	–	–
B9	961 pM	0.00082 s⁻¹	–	–
B10	64 pM	0.00137 s⁻¹	–	–
B11	50 pM	0.000772 s⁻¹	–	–
B12	8 pM	3.66e-05 s⁻¹	–	–
B13	2580 pM	0.00124 s⁻¹	–	–
B14	–	0.000433 s⁻¹	3 pM	2 nM
B15	–	0.000131 s⁻¹	–	–
B16	–	0.00057 s⁻¹	–	–
B17	–	0.000531 s⁻¹	–	–
B18	–	0.00079 s⁻¹	–	–
B19	–	0.000229 s⁻¹	–	–
B20	–	0.00015 s⁻¹	–	–
B21	–	0.00116 s⁻¹	–	–
B22	–	0.000669 s⁻¹	–	–
